Assay results: US20210032312A1 (Janssen / Centocor, published 2021)

Experiments:
[1] = target: T1, cynomolgus monkey CD8A on primary cynomolgus monkey CD8+ T cells (cynomolgus monkey, UniProt P01732 23-235 (human entry)); experiment: flow cytometry, cyno CD8+ T cells, 0.2 uM FN3
T1 construct: also called Cyno CD8alpha
Protocol: (§1) Binding of the 190 ELISA hits to human and cynomologous monkey primary CD8 T cells was assessed by flow cytometry. The FN3 domain molecules were diluted to 2 μM and 0.2 μM in PBS and incubated with human or cynomologous monkey CD8+ T cells in 96-well format. After 1 hour at 4 C, the cells were washed once with PBS and then resuspended with an anti-FN3 domain antibody (PAB25) solution. Following this incubation, the cells were washed twice with PBS and a PE conjugated secondary antibody and a viability dye were added. Finally, cells were washed and resuspended in PBS for flow cytometric analysis using a BD Canto Instrument. Cells were gating on live cells and median fluorescence intensity of the bound Centyrins (PE channel) was calculated using Cytobank software.

[2] = target: T1, cynomolgus monkey CD8A on primary …; experiment: flow cytometry, cyno CD8+ T cells, 2 uM FN3
Protocol: as §1

In house human CD8A-Fc = target: T2, In house human CD8A-Fc (human, UniProt P01732 22-182, limits assumed); experiment: SPR (ProteOn), captured hCD8A-Fc
T2 construct: Captured on goat anti-human Fc on a ProteOn GLC chip; also called hCD8A-Fc; recombinant human CD8 alpha; not shown: linker with flag (and polyhistidine) tag and Fc of human IgG1
T2 sequence (P01732 22-182 limits assumed): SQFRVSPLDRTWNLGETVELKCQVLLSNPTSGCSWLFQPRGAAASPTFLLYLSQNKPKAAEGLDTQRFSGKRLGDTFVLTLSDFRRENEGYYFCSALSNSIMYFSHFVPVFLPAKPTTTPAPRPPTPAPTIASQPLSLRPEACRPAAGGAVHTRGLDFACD
Protocol: Purified anti-CD8A FN3 domains were subjected to off-rate analysis using a Proteon surface plasmon resonance instrument in order to pick clones with the slowest off-rates for further characterization.
The immobilized GAH-Fc IgG densities averaged about 6000 Response Units (Ru) with less than 1% variation among different channels. In house human CD8A-Fc was captured in vertical orientation at 3 different ligand densities, 10, 5, 2.5 μg/ml for 5 minutes at 30 ul/minute flowrate. All FN3 domains were normalized to a 3 μM concentration, and tested for binding in horizontal orientation. All 6 analyte channels were used for FN3 domains to maximize the screening throughput. The dissociation phase was monitored for 15 minutes at a flow rate of 100 μl/min using PBST as running buffer. […] Data analyses were performed using Bio-Rad ProteOn Manager software (version 3.1.0.6). Raw data were double referenced by subtraction of the interspot (empty chip surface, no protein immobilized or captured) signals to correct the non-specific binding of the FN3 domain to the pre-coated GAH-Fc IgG surface, followed by a double correction using empty channel L6 where no hCD8A-Fc was captured. The processed binding data were locally fit to a 1:1 simple Langmuir binding model to extract the koff for each FN3 domain binding to captured hCD8A-Fc.

[3] = target: T3, human CD8 alpha (CD8A) on primary human CD8+ T cells (human, UniProt P01732 22-235); experiment: flow cytometry, human CD8+ T cells, 2 uM FN3
T3 construct: whole, on cells; also called hCD8A
T3 sequence (P01732 22-235): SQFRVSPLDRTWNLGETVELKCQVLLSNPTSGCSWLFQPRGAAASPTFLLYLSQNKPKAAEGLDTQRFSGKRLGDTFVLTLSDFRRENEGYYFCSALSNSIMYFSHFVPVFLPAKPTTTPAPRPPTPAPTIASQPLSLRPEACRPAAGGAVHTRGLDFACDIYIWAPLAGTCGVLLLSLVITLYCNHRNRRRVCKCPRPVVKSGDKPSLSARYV
Protocol: as §1

[4] = target: T3, human CD8 alpha (CD8A) on primary human …; experiment: flow cytometry, human CD8+ T cells, 0.2 uM FN3
Protocol: as §1

T1 sequence (P01732 other isoform, or with tags, fused parts or gaps limits assumed): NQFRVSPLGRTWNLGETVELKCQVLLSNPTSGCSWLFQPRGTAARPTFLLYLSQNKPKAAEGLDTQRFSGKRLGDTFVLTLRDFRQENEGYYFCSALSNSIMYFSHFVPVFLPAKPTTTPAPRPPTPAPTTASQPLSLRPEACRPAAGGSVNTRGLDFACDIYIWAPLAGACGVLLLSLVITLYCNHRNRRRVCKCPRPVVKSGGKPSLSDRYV

| Binder | Cyno T-cell Binding 0.2 uM (MFI) [1] [MFI] | Cyno T-cell Binding 2 uM (MFI) [2] [MFI] | koff (In house human CD8A-Fc) [s⁻¹] | Human T-cell Binding 2 uM (MFI) [3] [MFI] | Human T-cell Binding 0.2 uM (MFI) [4] [MFI] |
| --- | --- | --- | --- | --- | --- |
| P282BR9P1357_G9 (designed binder, FN3 domain) LPAPKNLVVSRVTEDSARLSWPIASQIHSPFDSFLIQYQESEKVGEAIVLTVPGSERSYDLTGLKPGTEYTVSIYGVDVKYDIDSRPISSNPLSAIFTT | 4640 | 41500 | 0.000304 | 12700 | 2800 |
| P282DR9P1359_F5 (designed binder, FN3 domain) LPAPKNLVVSRVTEDSARLSWTAPDAAFDSFQIAYPEWPPPGEAIVLTVPGSERSYDLTGLKPGTEYFVIIQGVKGGVESWPLSAIFTT | 34700 | 114000 | 9.02e-05 | 48900 | 8480 |
| P282DR9P1359_E11 (designed binder, FN3 domain) LPAPKNLVVSRVTEDSARLSWTAPDAAFDSFYISYPEWPPVGEAIVLTVPGSERSYDLTGLKPGTEYWVIIYGVKGGAISTPLSAIFTT | 33100 | 104000 | 0.000265 | 40600 | 7580 |
| P282DR9P1359_E6 (designed binder, FN3 domain) LPAPKNLVVSRVTEDSARLSWTAPDAAFDSFWIAYPEWPVQGEAIVLTVPGSERSYDLTGLKPGTEYFVVIQGVKGGTPSWPLSAIFTT | 5060 | 61700 | 0.00171 | 20500 | 1260 |
| P282DR9P1359_A12 (designed binder, FN3 domain) LPAPKNLVVSRVTEDSARLSWTAPEAAFDSFQIAYPEWPPPREAIVLTVPGSERSYDLTGLKPGTEYFVVIQGVKGGEISWPLSAIFTT | 15500 | 88000 | 8.12e-05 | 32200 | 5950 |
| P282DR9P1359_A8 (designed binder, FN3 domain) LPAPKNLVVSRVTEDSARLSWTAPDAAFDSFRIAYPEWPVQGEAIVLTVPGSERSYDLTGLKPGTEYFVIIYGVKGGELSPPLSAIFTT | 7770 | 70300 | 0.000638 | 21100 | 2110 |
| P282DR9P1359_D12 (designed binder, FN3 domain) LPAPKNLVVSRVTEDSARLSWTAPDAAFDSFRIAYPETATWGEAIVLTVPGSERSYDLTGLKPGTEYFVIIYGVKGGFESAPLSAIFTT | 1750 | 37100 | 0.00193 | 4540 | 542 |
| P282DR9P1359_C11 (designed binder, FN3 domain) LPAPKNLVVSRVTEDSARLSWTAPDAAFDSFKIAYPEFPPPGEAIVLTVPGSERSYDLTGLKPGTEYYVIIIGVKGGTDSWPLSAIFTT | 457 | 19900 | 0.00216 | 18200 | 1290 |
| P282DR9P1359_C12 (designed binder, FN3 domain) LPAPKNLVVSRVTEDSARLSWTAPDAAFDSFYISYPEWPVPGEAIVLTVPGSERSYDLTGLKPGTEYWVVIYGVKGGALSVPLSAIFTT | 3640 | 66500 | 0.000978 | 15100 | 944 |
| P282CR9P1358_F5 (designed binder, FN3 domain) LPAPKNLVVSRVTEDSARLSWTAPDAAFDSFWISYPEWPPDGEAIVLTVPGSERSYDLTGLKPGTEYFVIIWGVKGGETSAPLSAIFTT | 13700 | 85700 | 0.000637 | 24400 | 3070 |
| P282DR9P1359_C10 (designed binder, FN3 domain) LPAPKNLVVSRVTEDSARLSWTAPDAAFDSFAIVYPEWPTDGEAIVLTVPGSERSYDLTGLKPGTEYAVFIWGVKGGNQSWPLSAIFTT | 15100 | 98500 | 0.000991 | 27800 | 2880 |
| P282CR9P1358_D10 (designed binder, FN3 domain) LPAPKNLVVSRVTEDSARLSWTAPDAAFDSFLISYPEYPPPGEAIVLTVPGSERSYDLTGLKPGTEYFVIIFGVKGGDTSWPLSAIFTT | 4070 | 74100 | 0.000311 | 28600 | 2760 |

More lines, now with the values ahead:

| Cyno T-cell Binding 0.2 uM (MFI) [1] [MFI] | Cyno T-cell Binding 2 uM (MFI) [2] [MFI] | koff (In house human CD8A-Fc) [s⁻¹] | Human T-cell Binding 2 uM (MFI) [3] [MFI] | Human T-cell Binding 0.2 uM (MFI) [4] [MFI] | Binder |
| --- | --- | --- | --- | --- | --- |
| 2820 | 14800 | 0.000208 | 8360 | 2400 | P283BR9P1363_B2 (designed binder, FN3 domain) LPAPKNLVVSRVTEDSARLSWASTVDPHPRFDSFLIQYQESEKVGEAIVLTVPGSERSYDLTGLKPGTEYTVSIYGVDVKYDIDSRPISSNPLSAIFTT |
| 13600 | 81200 | 0.00101 | 24100 | 1950 | P282DR9P1359_E5 (designed binder, FN3 domain) LPAPKNLVVSRVTEDSARLSWTAPDAAFDSFAISYPEWPVPGEAIVLTVPGSERSYDLTGLKPGTEYFVIIYGVKGGLYSAPLSAIFTT |
| 1620 | 52400 | 0.00263 | 4310 | 349 | P282DR9P1359_E3 (designed binder, FN3 domain) LPAPKNLVVSRVTEDSARLSWTAPDAAFDSFAIAYPELPLGGEAIVLTVPGSERSYDLTGLKPGTEYFVIIYGVKGGVESFPLSAIFTT |
| 7050 | 55800 | 0.00113 | 10100 | 1060 | P282CR9P1358_C2 (designed binder, FN3 domain) LPAPKNLVVSRVTEDSARLSWTAPDAAFDSFKIAYPEWPSNGEAIVLTVPGSERSYDLTGLKPGTEYAVFIWGVKGGAFSNPLSAIFTT |
| 3080 | 48900 | 0.00106 | 6340 | 646 | P282DR9P1359_F3 (designed binder, FN3 domain) LPAPKNLVVSRVTEDSARLSWTAPDAAFDSFYITYPEWPVQGEAIVLTVPGSERSYDLTGLKPGTEYWVIIYGVKGGTESEPLSAIFTT |
| 1830 | 25700 | 0.000999 | 2710 | 511 | P282CR9P1358_C5 (designed binder, FN3 domain) LPAPKNLVVSRVTEDSARLSWTAPDAAFDSFLIAYPEWPDSGEAIVLTVPGSERSYDLTGLKPGTEYAVFIWGVKGGPLSHPLSAIFTT |
| 16900 | 81000 | 0.00119 | 26100 | 2920 | P282DR9P1359_E8 (designed binder, FN3 domain) LPAPKNLVVSRVTEDSARLSWTAPDAAFDSFQIAYPEWPVIGEAIVLTVPGSERSYDLTGLKPGTEYWVIIQGVKGGYTSWPLSAIFTT |
| 10700 | 73200 | 0.000389 | 19900 | 3780 | P282DR9P1359_F6 (designed binder, FN3 domain) LPAPKNLVVSRVTEDSARLSWTAPDAAFDSFDIAYPEWPTTGEAIVLTVPGSERSYDLTGLKPGTEYFVVIWGVKGGDHSAPLSAIFTT |
